Experimental data: PMC10505172, “Discovery and pharmacophoric characterization of chemokine network inhibitors using phage-display, saturation mutagenesis and computational modelling” (Nature Communications, 2023)

What was measured:
CXCL10 = target: T1, CXCL10 (Homo sapiens, UniProt P02778); assay: CXCL10-induced activated T cell (ATC) migration (chemotaxis); type: cell-based; conditions: HD2, HD2SCR and EVA4 at 20 μM (Fig. 6i), activated T cells, n = 3 biological replicates
T1 construct: purchased Peprotech 300-12
Protocol: For activated-T cell migration assays, 100000 cells/well were added to the top chamber of a 3-µm Transwell insert (3385, Corning) in 50 µL of migration media (HBSS (14025-092, Life Technologies), 0.1% protease free bovine serum albumin (A7030, Sigma), 0.05% DMSO (D4540, Sigma)). The bottom chamber contained 150 µL of migration media with chemokine and peptide added. Cells were migrated at 37 °C in 5% CO2 for 2 h.
Following the migration assay the migration plate was shaken at 850 RPM for 10 min, and media from bottom plate transferred to a round-bottomed 96 well plate (353910, Falcon). Cell counts were determined using an Atune NxT Flow Cytometer Plate Reader with Cytkick autosampler (ThermoFisher), based on cell size parameters FSC-H/SSC-H, and a previously defined gate setting for each cell type (Supplementary Fig. 11). All experiments were performed as three technical and three biological replicates. Statistical significances between control and experimental groups was evaluated using Dunnett’s test[73]. IC50 experiments were performed at the EC80 dose of chemokine. EC80 was calculated by fitting a chemokine dose-response curve with a 3-parameter log-logistic model (fixing the top to 100%) using the function “drm” in R-package drc[74]. IC50 was calculated by fitting an inhibitor response curve with a 4-parameter log-logistic model using the function “drm” in R-package drc[74]. […]

CXCL6 = target: T2, CXCL6 (Homo sapiens, UniProt P80162); assay: CXCL6-induced Jurkat CXCR1 (J:CXCR1) migration (chemotaxis); type: cell-based; conditions: HD2, HD2SCR and EVA4 at 10 μM, chemokine at EC80, J:CXCR1 cells, n = 3 biological replicates, Dunnett's test
T2 construct: purchased Peprotech 300-41
Protocol: For THP1 migration assays, 300000 cells/well were added to the top chamber of a 5-µm 96-well Transwell insert (3387, Corning) in 50 µL of cell migration media (RPMI-1640 (R0883, Sigma), 0.5% FBS (F9665, Sigma), 4 mM L-Glutamine (G7513, Sigma), 0.05% DMSO (D4540, Sigma)). The bottom chamber contained 150 µL of migration media with chemokine and peptide added. Cells were migrated at 37 °C in 5% CO2 for 4 h.
J:CXCR1 migration assays were performed exactly as for THP1 assays except that a 3-µm Transwell insert (3385, Corning) was used.
Following the migration assay the migration plate was shaken at 850 RPM for 10 min, and media from bottom plate transferred to a round-bottomed 96 well plate (353910, Falcon). Cell counts were determined using an Atune NxT Flow Cytometer Plate Reader with Cytkick autosampler (ThermoFisher), based on cell size parameters FSC-H/SSC-H, and a previously defined gate setting for each cell type (Supplementary Fig. 11). […] Statistical significances between control and experimental groups was evaluated using Dunnett’s test[73]. […] EC80 was calculated by fitting a chemokine dose-response curve with a 3-parameter log-logistic model (fixing the top to 100%) using the function “drm” in R-package drc[74]. IC50 was calculated by fitting an inhibitor response curve with a 4-parameter log-logistic model using the function “drm” in R-package drc[74]. […]

B1: EVA4: parental tick class A evasin, mature peptide residues 24–127 with N-terminal His-tag, expressed in HEK293F cells (protein)
chain: EVPQMTSSSAPDLEEEDDYTAYAPLTCYFTNSTLGLLAPPNCSVLCNSTTTWFNETSPNNASCLLTVDFLTQDAILQENQPYNCSVGHCDNGTCAGPPRHAQCW
modifications: left off: 8xHis, N-terminal, state not stated
notes: parental tick class A evasin, mature peptide residues 24–127 with N-terminal His-tag, expressed in HEK293F cells
effect on chemokine-induced cell migration (CXCL10): did not inhibit | effect on chemokine-induced cell migration (CXCL6): did not inhibit
